Series [1] in a line: folding stability dG unfold from chymotrypsin proteolysis; higher = more stable. In outline:
(§1)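 Bayesian fitting of sequencing counts gave K50 for each design. Unfolding free energy followed by setting this against a sequence-predicted unfolded-state K50 and a shared folded-state K50, either per protease or with trypsin and chymotrypsin combined. The designs, under 80 residues and lacking cysteine, were digested in a PA-tagged cDNA display format at 11 threefold-diluted protease concentrations and without protease, and only those with AlphaFold2 dimer inter-PAE above 15 were kept.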

Series [2] can be described thus: folding stability dG unfold from trypsin proteolysis; higher = more stable. A digest of the protocol:
as §1

Series [3] can be described thus: folding stability dG unfold (combined trypsin and chymotrypsin); higher = more stable. A digest of the protocol: as §1

± gives the half width of the 95% confidence interval.

Consider “SAGGSAGGSADNWFIQIKWRHPENGKKRTLHIPFKTPWDVEEIVEELAPPGMDEVEVKIYPFSAGGSAGGSA [r18_258_TrROS]”, for which the “folding stability dG unfold” value in series [1] was found to be 1.25 ± 0.091 kcal/mol; in series [2], 0.707 ± 0.051 kcal/mol; in series [3], 1.03 ± 0.061 kcal/mol.
The matching figures for “SAGGSAGGSADPSVKPPVIKRLVIDIPLEELEKLFPGKLEKAVELAEEAVKLGFDEVVILGGSAGGSAGGSA [r18_441_TrMRF]”: 1.12 ± 0.023 kcal/mol, 0.116 ± 0.031 kcal/mol and 0.793 ± 0.049 kcal/mol.
The matching figures for “SAGGSAGGSADVVVEVEYDSSGDYVLVKVKLKEKEIPFKFSKSLSPEEVIEKAKELAKKAAKSAGGSAGGSA [r18_266_TrMRF]”: 0.584 ± 0.27 kcal/mol, 0.597 ± 0.098 kcal/mol and 0.677 ± 0.13 kcal/mol.
In the case of “SAGGSAGGSAEEKVFVKLYLNPNEPPTIDLEFFFEDGRVVRLRLDLATGTLNDIDPRPLDFSAGGSAGGSAG [r3_299_TrMRF]”, the “folding stability dG unfold” value in series [1] was 2.97 ± 0.046 kcal/mol; in series [2], 2.74 ± 0.082 kcal/mol; in series [3] it was 2.8 ± 0.12 kcal/mol.
Turning to “SAGGSAGGSAEELAKELAKKLPPGAKFKIEVKTEYYKTKDGKTVKKKVEIKIYNEDGEEVTSAGGSAGGSAG [r3_247_TrROS_Hall]”, the “folding stability dG unfold” value in series [1] was 1.1 ± 0.51 kcal/mol; in series [2], -0.0104 ± 0.19 kcal/mol; in series [3] it was 0.679 ± 0.32 kcal/mol.
“SAGGSAGGSAEIKIEYTLAPDGTLYVKVEIPNPETGETLVLEGPFDSLEEAIEVAKELEKESAGGSAGGSAG [r3_174_TrMRF]”: the “folding stability dG unfold” value turned out to be 2.77 ± 0.056 kcal/mol in series [1], 2.29 ± 0.23 kcal/mol in series [2] and 2.68 ± 0.18 kcal/mol in series [3].
Consider “SAGGSAGGSAEITFNFPNPNGRPYPISIEIEKPKRNPDGKYRYDYKIKVSPGMPKEAAKDLFSAGGSAGGSA [r18_272_TrROS]”, for which the “folding stability dG unfold” value was -0.314 ± 0.33 kcal/mol in series [1], -0.849 ± 0.39 kcal/mol in series [2] and -0.351 ± 0.2 kcal/mol in series [3].
Consider “SAGGSAGGSAEITVEWPNGRPVTVEPDPDSGMYEARFPDGWVVRAPFTNGKIPIDWIPPKDVSAGGSAGGSA [r18_405_TrROS]”, for which the “folding stability dG unfold” value was 0.282 ± 0.07 kcal/mol in series [1], -0.578 ± 0.28 kcal/mol in series [2] and 0.00326 ± 0.08 kcal/mol in series [3].
In the same order, the values of “SAGGSAGGSAEIVPVDGKLYVRIEVDGKTYVFEFDSVEELKNATFTLPNGKKVKVEIVPKEDLSAGGSAGGS [r12_730_TrROS_Hall]” are 3.433 ± 0.029 kcal/mol, 2.26 ± 0.067 kcal/mol and 3.12 ± 0.059 kcal/mol.
In the same order, the values of “SAGGSAGGSAEKKKVTIRIVVKPEDVEEILKAIEELLPPGAKATIKVFDKNGELIAEFEFEVSAGGSAGGSA [r18_188_TrROS_Hall]” are 3.09 ± 0.25 kcal/mol, 2.5 ± 0.17 kcal/mol and 2.86 ± 0.12 kcal/mol.
In the same order, the values of “SAGGSAGGSAEKKTITVVVKVDENGKEKTPEELAKELEKAGFKVTKVTWDEENNYVTVTIEASAGGSAGGSA [r18_466_TrROS_Hall]” are 1.11 ± 0.049 kcal/mol, 1.72 ± 0.088 kcal/mol and 1.4 ± 0.18 kcal/mol.
For the sequence “SAGGSAGGSAEKLLIVVEVDTPEQAEALAKALAALLPPGAKITVKPVEVDGKLYLVAEVELSAGGSAGGSAG [r3_92_TrROS_Hall]”, the “folding stability dG unfold” value in series [1] worked out at 3.84 ± 0.21 kcal/mol; in series [2] it was 3.6 ± 0.16 kcal/mol; in series [3], 3.75 ± 0.2 kcal/mol.
For the sequence “SAGGSAGGSAEKRIVAKVTEVRENEDGEKTVRVRITLPNGEELEVEVRRVERVGDYLVIELSAGGSAGGSAG [r3_261_TrROS_Hall]”, the entries for the “folding stability dG unfold” value in series [1], in series [2] and in series [3] were 1.2 ± 0.048 kcal/mol, 1.26 ± 0.037 kcal/mol and 1.29 ± 0.089 kcal/mol, respectively.
In the same order, the values of “SAGGSAGGSAEPEKKYNVKVTFYNPNTGELVLEAEFPNMTIDEVKELAKKLGLEIVKIEVGSAGGSAGGSAG [r3_423_TrMRF]” are 4.43 ± 0.061 kcal/mol, 4.37 ± 0.27 kcal/mol and 4.48 ± 0.13 kcal/mol.
In the same order, the values of “SAGGSAGGSAERTLTITVPAAPGDIPALVAPDGSVYGIGDFEVIPGEGRVELKVTLVKPGDASAGGSAGGSA [r18_116_TrMRF]” are 0.212 ± 0.032 kcal/mol, -0.879 ± 0.1 kcal/mol and -0.0227 ± 0.051 kcal/mol.
In the case of “SAGGSAGGSAETVTITLKVKPGEKVKIVNKKTKKVFEATVKDGYLTITLPKEDITEIKIEKVSAGGSAGGSA [r18_170_TrROS_Hall]”, the “folding stability dG unfold” value stood at 2.47 ± 0.019 kcal/mol in series [1], 1.77 ± 0.05 kcal/mol in series [2] and 2.29 ± 0.09 kcal/mol in series [3].
As to “SAGGSAGGSAFDPGAPWIIMINIDIEVKKVEIERDPGDGKWEIKRIEITITIDIAIMPAEDMSAGGSAGGSA [r18_137_TrROS]”, the “folding stability dG unfold” value in series [1] is 4.11 ± 0.23 kcal/mol; in series [2] it was 3.42 ± 0.39 kcal/mol; in series [3], 3.88 ± 0.38 kcal/mol.
In the same order, the values of “SAGGSAGGSAGAEELAKALAEELNVEVEVEVVEVEEPEVEVTEERRLPPAPEEVTIEEDESAGGSAGGSAGG [r11_753_TrROS_Hall]” are 1.32 ± 0.092 kcal/mol, -0.129 ± 0.074 kcal/mol and 0.939 ± 0.12 kcal/mol.
In the case of “SAGGSAGGSAGAEITVEYNPETNVLTVTVKVEFTLPDGTKVERTYRATINADGTITIEPESAGGSAGGSAGG [r11_911_TrROS_Hall]”, the results for the “folding stability dG unfold” value in series [1], in series [2] and in series [3] were 5 ± 0.095 kcal/mol, 3.99 ± 0.27 kcal/mol and 4.97 ± 0.13 kcal/mol, respectively.
In the same order, the values of “SAGGSAGGSAGAGSWKDALKASSNETVTIPLPPTGKTLKITFSKSDDGSWKVDIEVFPAESAGGSAGGSAGG [r11_13_TrMRF]” are 2.18 ± 0.079 kcal/mol, 2.03 ± 0.13 kcal/mol and 2.12 ± 0.15 kcal/mol.
The matching figures for “SAGGSAGGSAGAPTGFIRVRVEFVTPDGQPAEADFTVPASLVDAVFRAARETGARVSLEGSAGGSAGGSAGG [r11_603_TrMRF]”: 1.65 ± 0.074 kcal/mol, 0.504 ± 0.1 kcal/mol and 1.2 ± 0.068 kcal/mol.
Take “SAGGSAGGSAGAVFTLPDGMKITIEKNEDGTYTITIETDGKTETIEIKPGETIEIEIFPPSAGGSAGGSAGG [r11_164_TrROS_Hall]”: the “folding stability dG unfold” value in series [1] was 3.202 ± 0.03 kcal/mol; in series [2], 2.43 ± 0.093 kcal/mol; in series [3] it was 2.91 ± 0.077 kcal/mol.
Turning to “SAGGSAGGSAGAVLPIKNGWVAVIHMGPDGRVTINIYPPDKPREIEIPVNEPMEIEIFPWSAGGSAGGSAGG [r11_164_TrROS]”, the “folding stability dG unfold” value in series [1] was 1.3 ± 0.058 kcal/mol; in series [2] it was 2.08 ± 0.053 kcal/mol; in series [3], 1.78 ± 0.091 kcal/mol.
Turning to “SAGGSAGGSAGDAPPGATLTLNIELELTLKVVDPSTGELVEERKLRIPLTLTYVLDDDDLSAGGSAGGSAGG [r11_970_TrMRF]”, the figures for the “folding stability dG unfold” value in series [1], in series [2] and in series [3] were 4.24 ± 0.13 kcal/mol, 3.15 ± 0.42 kcal/mol and 3.8 ± 0.43 kcal/mol, respectively.
As to “SAGGSAGGSAGDFDIKTVKNPPGTLMIVMPDNGWIQQIKFDPKNGKFKIDEIKWIPLDDISAGGSAGGSAGG [r11_352_TrROS]”, the “folding stability dG unfold” value in series [1] came out at 0.602 ± 0.066 kcal/mol; in series [2] it was 0.499 ± 0.028 kcal/mol; in series [3], 0.585 ± 0.11 kcal/mol.
As to “SAGGSAGGSAGDFKIKDVEVERPPGRHRVEIRLPGNKKPIKIDNVPTPDDAEDAVKELLKSAGGSAGGSAGG [r11_183_TrROS]”, the “folding stability dG unfold” value in series [1] was determined as 0.975 ± 0.056 kcal/mol; in series [2] it was 0.0405 ± 0.073 kcal/mol; in series [3], 0.683 ± 0.1 kcal/mol.

The values above are taken from the supplement of paper PMC12764529.
